The values below come from the supplement of paper PMC10567573.

To fix the notation:
B1: MTMR15 (parent)
chain: YVKAKKSIDKDEEFAGSSPQSSKS
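Also: lentivirally expressed fusions sorted by FACS into six bins by GFP to DsRed ratio, PSI derived from sequencing read proportions per bin multiplied by bin number.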

In the data set the parent is B1. The data set can be described thus: protein stability index of a GFP-peptide fusion (GPS, HEK-293T) (PSI 1-6); higher = more stable. To be noted: c terminus: a fixed tail appended.
YVKAKKSIDKDFEFAGSSPQSSKS: the protein stability index came out at 2.37.

Take YVKAKKSIDKDAEFAGSSPQSSKS: the protein stability index came out at 2.94. The result for YVKAKKSIDKDWEFAGSSPQSSKS reads 2.27; that for YVKAKKSIDKDGEFAGSSPQSSKS, 2.8. The result for YVKAKKSIDKDCEFAGSSPQSSKS reads 2.59. On to YVKAKKSIDKDYEFAGSSPQSSKS, for which the protein stability index came out at 1.93. On to YVKAKKSIDKDTEFAGSSPQSSKS, for which the protein stability index stood at 3.21. The value for YVKAKKSIDKDPEFAGSSPQSSKS was 2.68; that for YVKAKKSIDKDNEFAGSSPQSSKS was 2.64. The value for YVKAKKSIDKDLEFAGSSPQSSKS was 2.78; that for YVKAKKSIDKDSEFAGSSPQSSKS was 2.92. Consider YVKAKKSIDKDIEFAGSSPQSSKS, for which the protein stability index worked out at 2.41. For the variant YVKAKKSIDKDHEFAGSSPQSSKS, the protein stability index was 2.71. The result for YVKAKKSIDKDQEFAGSSPQSSKS reads 2.98; that for YVKAKKSIDKDDEFAGSSPQSSKS, 2.69; that for YVKAKKSIDKDREFAGSSPQSSKS, 2.6. For the variant YVKAKKSIDKDMEFAGSSPQSSKS, the protein stability index amounted to 2.93. Regarding YVKAKKSIDKDKEFAGSSPQSSKS, the protein stability index came to 2.7. The value for YVKAKKSIDKDVEFAGSSPQSSKS was 2.3; that for YVKAKKLIDKDEEFAGSSPQSSKS was 2.85; that for YVKAKKWIDKDEEFAGSSPQSSKS was 2.27. YVKAKKGIDKDEEFAGSSPQSSKS: the protein stability index was determined as 3.11. With YVKAKKRIDKDEEFAGSSPQSSKS, the protein stability index came to 3.22. Consider YVKAKKIIDKDEEFAGSSPQSSKS, for which the protein stability index worked out at 3.01. The result for YVKAKKNIDKDEEFAGSSPQSSKS reads 2.98.

As for YVKAKKYIDKDEEFAGSSPQSSKS, the protein stability index came out at 2.08.

Take YVKAKKMIDKDEEFAGSSPQSSKS: the protein stability index stood at 3.33. The value for YVKAKKTIDKDEEFAGSSPQSSKS was 2.96.

YVKAKKPIDKDEEFAGSSPQSSKS: the protein stability index worked out at 3.41. YVKAKKFIDKDEEFAGSSPQSSKS: the protein stability index came to 3.06.

With YVKAKKKIDKDEEFAGSSPQSSKS, the protein stability index stood at 3.38. For the variant YVKAKKHIDKDEEFAGSSPQSSKS, the protein stability index stood at 3.05. As for YVKAKKAIDKDEEFAGSSPQSSKS, the protein stability index amounted to 3.15.

For the variant YVKAKKDIDKDEEFAGSSPQSSKS, the protein stability index stood at 2.77. As for YVKAKKEIDKDEEFAGSSPQSSKS, the protein stability index stood at 3.58. Turning to YVKAKKCIDKDEEFAGSSPQSSKS, the protein stability index was 3.33. The result for YVKAKKQIDKDEEFAGSSPQSSKS reads 2.91. The value for YVKAKKVIDKDEEFAGSSPQSSKS was 3.13; that for YVKAKKSIDKDEVFAGSSPQSSKS was 2.31; that for YVKAKKSIDKDEFFAGSSPQSSKS was 2.09. The result for YVKAKKSIDKDELFAGSSPQSSKS reads 2.74; that for YVKAKKSIDKDEHFAGSSPQSSKS, 3.02. Regarding YVKAKKSIDKDENFAGSSPQSSKS, the protein stability index is 2.43. In the case of YVKAKKSIDKDETFAGSSPQSSKS, the protein stability index was determined as 2.7. For the variant YVKAKKSIDKDEMFAGSSPQSSKS, the protein stability index was 2.39. As to YVKAKKSIDKDEDFAGSSPQSSKS, the protein stability index stood at 3.49. The result for YVKAKKSIDKDEYFAGSSPQSSKS reads 2.71. The value for YVKAKKSIDKDEWFAGSSPQSSKS was 1.94; that for YVKAKKSIDKDEGFAGSSPQSSKS was 2.82; that for YVKAKKSIDKDEQFAGSSPQSSKS was 3.07. As for YVKAKKSIDKDEIFAGSSPQSSKS, the protein stability index came to 2.05. The value for YVKAKKSIDKDEKFAGSSPQSSKS was 2.56. The result for YVKAKKSIDKDECFAGSSPQSSKS reads 2.05; that for YVKAKKSIDKDEAFAGSSPQSSKS, 2.65. The value for YVKAKKSIDKDESFAGSSPQSSKS was 2.78; that for YVKAKKSIDKDEPFAGSSPQSSKS was 2.81; that for YVKAKKSIDKDERFAGSSPQSSKS was 2.77.

As for YVKAKKSIDKDEENAGSSPQSSKS, the protein stability index came out at 3.49. On to YVKAKKSIDKDEELAGSSPQSSKS, for which the protein stability index turned out to be 3.27. The value for YVKAKKSIDKDEEPAGSSPQSSKS was 3.74; that for YVKAKKSIDKDEEWAGSSPQSSKS was 2.67; that for YVKAKKSIDKDEEIAGSSPQSSKS was 3.59.

In the case of YVKAKKSIDKDEEGAGSSPQSSKS, the protein stability index stood at 3.35.

With YVKAKKSIDKDEEVAGSSPQSSKS, the protein stability index stood at 3.61. In the case of YVKAKKSIDKDEESAGSSPQSSKS, the protein stability index amounted to 3.46.

For YVKAKKSIDKDEEHAGSSPQSSKS, the protein stability index was found to be 3.47. The value for YVKAKKSIDKDEETAGSSPQSSKS was 3.55; that for YVKAKKSIDKDEEEAGSSPQSSKS was 3.94.

For the variant YVKAKKSIDKDEEAAGSSPQSSKS, the protein stability index was determined as 3.25. The result for YVKAKKSIDKDEEQAGSSPQSSKS reads 2.89; that for YVKAKKSIDKDEECAGSSPQSSKS, 3.43; that for YVKAKKSIDKDEEMAGSSPQSSKS, 3.12. The value for YVKAKKSIDKDEEYAGSSPQSSKS was 3.5; that for YVKAKKSIDKDEEDAGSSPQSSKS was 3.45; that for YVKAKKSIDKDEEKAGSSPQSSKS was 3.29.

On to YVKAKKSIDKDEERAGSSPQSSKS, for which the protein stability index came to 3.25. The value for YVKAKKSIDKDEEFAKSSPQSSKS was 3.11; that for YVKAKKSIDKDEEFAFSSPQSSKS was 2.03.

On to YVKAKKSIDKDEEFALSSPQSSKS, for which the protein stability index was determined as 2.85. The result for YVKAKKSIDKDEEFADSSPQSSKS reads 3.54; that for YVKAKKSIDKDEEFAHSSPQSSKS, 2.71.

As to YVKAKKSIDKDEEFACSSPQSSKS, the protein stability index was 3.22.

Turning to YVKAKKSIDKDEEFAESSPQSSKS, the protein stability index was 3.36. The value for YVKAKKSIDKDEEFAASSPQSSKS was 3.07; that for YVKAKKSIDKDEEFAISSPQSSKS was 2.86. The value for YVKAKYSIDKDEEFAGSSPQSSKS was 2.78; that for YVKAKNSIDKDEEFAGSSPQSSKS was 3.25; that for YVKAKWSIDKDEEFAGSSPQSSKS was 2.7.

Take YVKAKQSIDKDEEFAGSSPQSSKS: the protein stability index worked out at 3.33.

With YVKAKSSIDKDEEFAGSSPQSSKS, the protein stability index was determined as 2.84.

For the variant YVKAKTSIDKDEEFAGSSPQSSKS, the protein stability index is 3.5. Regarding YVKAKVSIDKDEEFAGSSPQSSKS, the protein stability index came to 2.64. Turning to YVKAKRSIDKDEEFAGSSPQSSKS, the protein stability index was 3.43. The result for YVKAKPSIDKDEEFAGSSPQSSKS reads 3.05.
